Article PMC4368477

Target: HA head of H1N1 A/Solomon Islands/3/2006 (Influenza A virus, A/Solomon Islands/3/2006 (H1N1))
Experiment: BLI

CH65 Fab
koff: 0.013 s⁻¹ | kon: 42900 M⁻¹ s⁻¹
